Test results reported in paper PMC6393296, “Intrinsically disordered regions regulate both catalytic and non-catalytic activities of the MutLα mismatch repair complex”.

Key:
[1] = biological target: Mlh1 (WT, FLAG);Pms1 (WT) (Saccharomyces cerevisiae (expressed in …, UniProt P38920;P14242 1-769;1-873, |)); assay: filter binding; no nucleotide; 2 mM Mg2+; Filter binding: 20 mM Tris-HCl pH 7.5, 20 mM NaCl (25 mM in legends), 0.01 mM EDTA, 2 mM MgCl2, 40 ug/ml BSA, 0.1 mM DTT, 15 nM DNA, +/-1 mM ATP, 30 C, 10 min; conditions: protein: recombinant;recombinant; tags: FLAG inserted at position 499;; copies: 1;1; label: 5'-32P on AO3142; blunt
Sequence of Mlh1 (WT, FLAG);Pms1 (WT) (Saccharomyces cerevisiae (P38920 whole entry, chain 1 of 2): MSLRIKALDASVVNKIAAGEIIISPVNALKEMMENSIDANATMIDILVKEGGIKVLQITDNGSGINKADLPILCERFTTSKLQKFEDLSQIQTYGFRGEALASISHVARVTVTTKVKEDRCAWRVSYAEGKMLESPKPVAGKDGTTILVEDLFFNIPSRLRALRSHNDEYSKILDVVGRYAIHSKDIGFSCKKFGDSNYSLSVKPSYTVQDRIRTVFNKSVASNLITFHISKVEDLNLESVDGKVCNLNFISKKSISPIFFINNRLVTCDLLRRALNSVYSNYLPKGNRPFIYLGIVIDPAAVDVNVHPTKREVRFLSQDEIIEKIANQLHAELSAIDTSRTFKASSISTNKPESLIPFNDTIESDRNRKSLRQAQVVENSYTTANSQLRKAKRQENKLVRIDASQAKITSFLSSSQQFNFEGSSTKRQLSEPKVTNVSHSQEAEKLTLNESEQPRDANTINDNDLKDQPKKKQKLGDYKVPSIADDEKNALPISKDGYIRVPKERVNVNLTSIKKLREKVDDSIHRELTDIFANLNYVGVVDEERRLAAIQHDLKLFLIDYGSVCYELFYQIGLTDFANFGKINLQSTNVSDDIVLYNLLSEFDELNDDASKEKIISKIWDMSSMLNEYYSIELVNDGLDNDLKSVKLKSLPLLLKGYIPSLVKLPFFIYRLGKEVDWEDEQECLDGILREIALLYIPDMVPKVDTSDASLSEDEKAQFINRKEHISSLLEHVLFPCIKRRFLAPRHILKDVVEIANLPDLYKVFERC
Sequence of Mlh1 (WT, FLAG);Pms1 (WT) (Saccharomyces cerevisiae (P14242 whole entry, chain 2 of 2): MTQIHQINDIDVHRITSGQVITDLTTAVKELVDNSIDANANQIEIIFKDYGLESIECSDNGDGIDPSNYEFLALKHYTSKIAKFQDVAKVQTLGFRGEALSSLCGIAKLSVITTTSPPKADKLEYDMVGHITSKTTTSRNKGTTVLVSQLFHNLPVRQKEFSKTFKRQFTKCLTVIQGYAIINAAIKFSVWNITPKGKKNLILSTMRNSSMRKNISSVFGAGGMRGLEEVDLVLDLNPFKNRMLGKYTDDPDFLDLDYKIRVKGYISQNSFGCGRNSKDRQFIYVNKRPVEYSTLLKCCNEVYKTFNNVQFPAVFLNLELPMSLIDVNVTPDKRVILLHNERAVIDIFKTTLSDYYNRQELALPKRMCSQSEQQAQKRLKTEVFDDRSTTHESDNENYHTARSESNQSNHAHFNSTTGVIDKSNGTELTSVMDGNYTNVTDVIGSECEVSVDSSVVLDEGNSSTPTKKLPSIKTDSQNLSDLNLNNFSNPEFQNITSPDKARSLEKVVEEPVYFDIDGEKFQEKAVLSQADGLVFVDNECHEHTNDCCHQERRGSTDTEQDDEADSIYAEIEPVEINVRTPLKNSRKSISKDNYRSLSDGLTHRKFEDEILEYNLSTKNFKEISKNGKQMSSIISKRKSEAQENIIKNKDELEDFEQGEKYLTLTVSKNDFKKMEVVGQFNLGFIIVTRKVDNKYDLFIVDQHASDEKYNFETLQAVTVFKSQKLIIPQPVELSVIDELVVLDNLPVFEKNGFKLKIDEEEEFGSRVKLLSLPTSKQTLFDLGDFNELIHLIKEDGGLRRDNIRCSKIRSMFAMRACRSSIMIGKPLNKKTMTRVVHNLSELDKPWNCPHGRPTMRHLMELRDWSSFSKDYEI

[2] = biological target: Mlh1 del348-373 (FLAG);Pms1 del584-634 (DLDnull subunit) (Saccharomyces cerevisiae (expressed in …, UniProt P38920;P14242 1-769;1-873, del348-373|del584-634)); assay: filter binding; no nucleotide; 2 mM Mg2+; similar to WT; Filter binding: 20 mM Tris-HCl pH 7.5, 20 mM NaCl (25 mM in legends), 0.01 mM EDTA, 2 mM MgCl2, 40 ug/ml BSA, 0.1 mM DTT, 15 nM DNA, +/-1 mM ATP, 30 C, 10 min; conditions: protein: recombinant;recombinant; tags: FLAG inserted at position equivalent to 499;; copies: 1;1; label: 5'-32P on AO3142; blunt
Sequence of Mlh1 del348-373 (FLAG);Pms1 del584-634 (DLDnull subunit) (Saccharomyces cerevisiae (P38920 other isoform, or with tags, fused parts or gaps del348-373|del584-634, chain 1 of 2): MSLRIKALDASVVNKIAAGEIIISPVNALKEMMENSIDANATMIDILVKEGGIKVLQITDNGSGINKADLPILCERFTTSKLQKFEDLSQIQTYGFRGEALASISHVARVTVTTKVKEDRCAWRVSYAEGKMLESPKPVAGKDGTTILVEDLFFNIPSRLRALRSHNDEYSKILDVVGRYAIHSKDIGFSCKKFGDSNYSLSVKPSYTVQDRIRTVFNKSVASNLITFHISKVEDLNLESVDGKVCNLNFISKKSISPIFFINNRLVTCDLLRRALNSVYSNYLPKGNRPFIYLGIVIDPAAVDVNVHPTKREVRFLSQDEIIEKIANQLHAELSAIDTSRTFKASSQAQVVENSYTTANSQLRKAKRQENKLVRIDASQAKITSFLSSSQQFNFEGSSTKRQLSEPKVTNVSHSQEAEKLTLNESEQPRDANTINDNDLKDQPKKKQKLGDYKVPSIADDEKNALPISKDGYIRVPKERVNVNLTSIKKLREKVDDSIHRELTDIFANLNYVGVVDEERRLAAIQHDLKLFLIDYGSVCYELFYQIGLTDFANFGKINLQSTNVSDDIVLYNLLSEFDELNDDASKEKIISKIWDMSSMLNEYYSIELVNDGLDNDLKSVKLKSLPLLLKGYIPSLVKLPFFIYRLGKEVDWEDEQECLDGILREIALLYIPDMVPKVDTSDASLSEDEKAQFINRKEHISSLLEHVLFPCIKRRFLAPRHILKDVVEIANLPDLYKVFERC
Sequence of Mlh1 del348-373 (FLAG);Pms1 del584-634 (DLDnull subunit) (Saccharomyces cerevisiae (P14242 other isoform, or with tags, fused parts or gaps del348-373|del584-634, chain 2 of 2): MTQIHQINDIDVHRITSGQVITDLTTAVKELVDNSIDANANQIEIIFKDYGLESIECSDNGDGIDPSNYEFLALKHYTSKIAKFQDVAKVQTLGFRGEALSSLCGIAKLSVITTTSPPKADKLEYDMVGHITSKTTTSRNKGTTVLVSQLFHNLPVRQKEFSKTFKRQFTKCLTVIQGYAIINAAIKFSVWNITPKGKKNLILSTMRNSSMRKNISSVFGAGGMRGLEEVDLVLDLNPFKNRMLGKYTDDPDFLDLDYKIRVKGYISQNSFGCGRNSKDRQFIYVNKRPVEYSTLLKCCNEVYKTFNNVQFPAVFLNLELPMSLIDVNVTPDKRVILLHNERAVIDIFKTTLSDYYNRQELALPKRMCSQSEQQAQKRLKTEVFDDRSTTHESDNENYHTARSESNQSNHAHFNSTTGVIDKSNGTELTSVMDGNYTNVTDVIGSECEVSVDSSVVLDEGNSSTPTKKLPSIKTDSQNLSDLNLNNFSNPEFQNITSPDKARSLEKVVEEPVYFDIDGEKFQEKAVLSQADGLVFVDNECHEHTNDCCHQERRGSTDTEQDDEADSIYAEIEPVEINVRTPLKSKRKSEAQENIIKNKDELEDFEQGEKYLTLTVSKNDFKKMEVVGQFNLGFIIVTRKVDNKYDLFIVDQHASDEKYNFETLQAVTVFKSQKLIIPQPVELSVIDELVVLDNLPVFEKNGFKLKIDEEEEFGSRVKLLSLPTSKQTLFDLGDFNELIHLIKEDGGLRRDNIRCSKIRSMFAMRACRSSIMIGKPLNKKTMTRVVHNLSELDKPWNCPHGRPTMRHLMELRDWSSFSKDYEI

[3] = biological target: Mlh1 del348-373 (FLAG);Pms1 del438-487 (DLDMMR subunit) (Saccharomyces cerevisiae (expressed in …, UniProt P38920;P14242 1-769;1-873, del348-373|del438-487)); assay: as above; conditions: protein: recombinant;recombinant; tags: FLAG inserted at position equivalent to 499;; copies: 1;1; label: 5'-32P on AO3142; blunt
Sequence of Mlh1 del348-373 (FLAG);Pms1 del438-487 (DLDMMR subunit) (Saccharomyces cerevisiae (P38920 other isoform, or with tags, fused parts or gaps del348-373|del438-487, chain 1 of 2): as the sequence (P38920 other isoform, or with tags, fused parts or gaps del348-373|del584-634, chain 1 of 2) above
Sequence of Mlh1 del348-373 (FLAG);Pms1 del438-487 (DLDMMR subunit) (Saccharomyces cerevisiae (P14242 other isoform, or with tags, fused parts or gaps del348-373|del438-487, chain 2 of 2): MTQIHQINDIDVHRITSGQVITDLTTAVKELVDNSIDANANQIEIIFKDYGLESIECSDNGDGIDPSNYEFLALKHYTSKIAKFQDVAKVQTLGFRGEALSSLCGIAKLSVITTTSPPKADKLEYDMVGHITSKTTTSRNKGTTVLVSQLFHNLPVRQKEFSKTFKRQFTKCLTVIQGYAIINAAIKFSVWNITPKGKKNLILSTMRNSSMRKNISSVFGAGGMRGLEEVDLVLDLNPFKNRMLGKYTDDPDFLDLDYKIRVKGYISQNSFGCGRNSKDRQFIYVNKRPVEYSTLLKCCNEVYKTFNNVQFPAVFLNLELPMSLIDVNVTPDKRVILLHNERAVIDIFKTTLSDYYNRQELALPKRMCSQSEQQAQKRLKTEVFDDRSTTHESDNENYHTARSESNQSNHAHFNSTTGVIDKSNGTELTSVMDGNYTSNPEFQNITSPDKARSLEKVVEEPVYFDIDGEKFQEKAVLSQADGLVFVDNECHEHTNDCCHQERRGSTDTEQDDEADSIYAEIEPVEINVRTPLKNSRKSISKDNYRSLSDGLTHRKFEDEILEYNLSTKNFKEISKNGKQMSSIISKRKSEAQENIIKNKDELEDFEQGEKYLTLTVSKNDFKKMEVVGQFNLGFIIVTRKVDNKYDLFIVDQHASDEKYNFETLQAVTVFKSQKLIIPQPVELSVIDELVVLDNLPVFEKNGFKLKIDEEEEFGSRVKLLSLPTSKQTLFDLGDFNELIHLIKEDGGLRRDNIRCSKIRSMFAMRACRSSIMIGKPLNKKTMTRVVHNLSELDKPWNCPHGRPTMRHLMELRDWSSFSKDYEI

Measured: binding result

B1: 49-bp homoduplex AO3142/AO3144 (dsDNA)
DNA 1: GGGTCAACGTGGGCAAAGATGTCCTAGCAAGTCAGAATTCGGTAGCGTG
DNA 2: CACGCTACCGAATTCTGACTTGCTAGGACATCTTTGCCCACGTTGACCC
binds: [1] | [2] | [3]
